Assay results reported in publication PMC2655723.

What was measured:
[1] = target: Full-length HIV-1 YU2 envelope glycoproteins (HIV-1, strain YU2) (UniProt P35961)
[2] = target: HIV-1 AD8 envelope glycoproteins (HIV-1, strain AD8)

## Four-domain soluble CD4 (domain or fragment)
[1]
  IC50 of sCD4 for inhibition of infection of CD4+CCR5+ Cf2Th cells by recombinant HIV-1(YU2), luciferase activity: 12 nM
[2]
  IC50 of sCD4 for inhibition of infection of CD4+CCR5+ Cf2Th cells by recombinant HIV-1(AD8), luciferase activity: 80 nM
